For test [1], the target named is T1, epithelial CAR on T84 monolayers (Homo sapiens, UniProt P78310).
T1 construct: endogenous in cells; host or cells: T84
T1 sequence (P78310 20-365): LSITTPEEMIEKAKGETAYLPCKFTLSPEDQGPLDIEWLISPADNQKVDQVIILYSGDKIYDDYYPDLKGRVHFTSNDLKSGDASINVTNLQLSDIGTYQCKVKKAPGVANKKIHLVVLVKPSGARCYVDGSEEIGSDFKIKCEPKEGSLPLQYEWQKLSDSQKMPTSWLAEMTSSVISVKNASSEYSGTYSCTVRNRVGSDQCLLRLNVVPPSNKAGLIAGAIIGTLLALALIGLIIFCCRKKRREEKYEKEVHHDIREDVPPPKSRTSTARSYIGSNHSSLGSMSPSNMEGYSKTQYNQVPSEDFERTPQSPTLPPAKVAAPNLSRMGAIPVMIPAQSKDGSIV
The experiment in a line: Soluble JAML binding to epithelial CAR, immunofluorescence. Type of test: cell-based. As to conditions: sJAML 20 μg/ml, 1 h at 37° C. after 20 min Ca2+ free buffer; FIG. 7D. The protocol: FIG. 7D. T84 monolayers were subjected to transient calcium depletion by preincubation in Ca^2+ free buffer (PBS) for 20 min to increase access to tight junctions, were incubated with sJAML (20 μg/ml) for 1 h at 37° C. […] The scale bar is 20 μm.
(§1) As it has been established that epithelial CAR is the ligand for JAML on PMN. Whether shed JAML, as well as the recombinant protein could bind to CAR was investigated. To do this, CHO cells stably expressing CAR protein (CHO-CAR) were incubated with either supernatants from PMA activated differentiated PLB-985 (that release high levels of soluble JAML upon activation, (FIG. 2)), or recombinant soluble JAML and stained with DW216 to detect bound JAML. […] The same observation was verified by IF (FIG. 7B). […] The calcium depletion disrupts intercellular junctions of the epithelium and allows for better penetration of soluble JAML.

A further test concerns the target T2, CAR on CHO-CAR cells (Homo sapiens, UniProt P78310).
T2 construct: The full length gene of CAR was cloned into pcDNA3.1-Hygromycin; expressed in transfected cells
T2 sequence (P78310 20-365): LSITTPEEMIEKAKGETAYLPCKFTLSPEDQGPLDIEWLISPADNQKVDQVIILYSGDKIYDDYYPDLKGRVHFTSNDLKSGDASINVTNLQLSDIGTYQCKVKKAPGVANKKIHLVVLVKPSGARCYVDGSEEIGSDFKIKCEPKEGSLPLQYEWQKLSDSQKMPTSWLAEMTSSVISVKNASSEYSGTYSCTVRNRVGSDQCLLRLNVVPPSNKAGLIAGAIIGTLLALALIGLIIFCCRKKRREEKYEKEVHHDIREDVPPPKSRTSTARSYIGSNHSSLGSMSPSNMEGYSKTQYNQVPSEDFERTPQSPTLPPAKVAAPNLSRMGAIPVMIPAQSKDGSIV
As to the kind of experiment: Soluble JAML binding to CHO-CAR by flow cytometry. Type of test: cell-based. The settings on record: sJAML 20 μg/ml, 1 h at 4° C., DW216 detection, FIG. 7A. The method, then:
CHO-K1 cells stably expressing CAR (CHO-CAR) were incubated with supernatants from PMA activated PLB cells (˜5˜10^7 cell activated in 1 ml, left panel) or recombinant soluble JAML-His (sJAML, 20 μg/ml, right panel) for 1 h at 4° C. JAML binding to CAR on the cell surface was measured by flow cytometry and compared to CHO-CAR cells alone (NoTx). The flow micrograph is representative of 4 independent experiments.
as §1
In general terms: Flow cytometry measures light scatter and fluorescence of single cells or particles in a stream.

In test [2] the target is T3, CAR binding to JAML on CHO cells (Homo sapiens, UniProt Q86YT9).
T3 construct: expressed in transfected cells
T3 sequence (Q86YT9 20-394): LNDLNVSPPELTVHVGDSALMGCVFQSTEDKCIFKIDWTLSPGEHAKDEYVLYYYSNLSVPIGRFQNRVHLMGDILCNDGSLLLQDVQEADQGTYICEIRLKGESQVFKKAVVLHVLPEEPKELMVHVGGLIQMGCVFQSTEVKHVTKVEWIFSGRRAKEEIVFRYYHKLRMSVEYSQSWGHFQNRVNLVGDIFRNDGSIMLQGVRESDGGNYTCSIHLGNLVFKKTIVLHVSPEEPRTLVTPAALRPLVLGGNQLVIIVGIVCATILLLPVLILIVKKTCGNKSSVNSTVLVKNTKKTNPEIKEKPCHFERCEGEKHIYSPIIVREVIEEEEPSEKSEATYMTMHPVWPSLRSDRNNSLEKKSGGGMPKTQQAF
The experiment in a line: CAR-GST binding to CHO-JAML by flow cytometry. Type of test: cell-based. The settings on record: CAR-GST 20 μg/ml, mAbs 30 μg/ml, FIG. 7C. The method, then: FIG. 7C. CHO-K1 cells stably expressing JAML (CHO-JAML) were incubated with CAR-GST alone (20 μg/ml, left panel) or in the presence of DW216 and DW100 mAbs (30 μg/ml, right panel) as described for sJAML and the binding was measured by flow cytometry.
as §1

The next test addresses T4, JAML D1 domain (Homo sapiens, UniProt Q86YT9).
T4 construct: made in house; host or cells: HEK293T
T4 sequence (Q86YT9 20-140): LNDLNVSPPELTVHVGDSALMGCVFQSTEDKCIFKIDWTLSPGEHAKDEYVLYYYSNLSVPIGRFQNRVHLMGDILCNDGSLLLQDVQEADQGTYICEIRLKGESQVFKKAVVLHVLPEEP
As to the kind of experiment: Domain specificity ELISA on sJAML-His, sJAML.D1-Fc, sJAML.D2-Fc. Type of test: binding. The settings on record: sJAML.D2-Fc coated, FIG. 1B. The method, then:
FIG. 1B. sJAML-His and purified soluble, mutant fragments of JAML, tagged with rabbit Fc (membrane distal Ig loop: sJAML.D1-Fc and membrane proximal Ig loop: sJAML.D2-Fc) were coated on Immulon II microtiter wells overnight at 4° C. After blocking and washing, antibodies were added to wells for 1 hour and the assay developed with HRP conjugated goat anti mouse Ig (H+L). After addition of ABTS, microtiter wells were analyzed in a microtiter plate reader at 405 nm wavelength. M3 is polyclonal mouse serum collected from the sJAML-His immunized mouse before the fusion. 9E10 anti Myc was used as control.
To determine the domain specificity of monoclonal antibodies, soluble full length JAML.D1D2-His (sJAML-His), truncated extracellular fragments: soluble membrane distal fragment JAML.D1-Fc (sJAML.D1-Fc), and soluble membrane proximal fragment JAML.D2-Fc (sJAML.D2-Fc), both tagged with rabbit Fc, were generated and tested for antibody binding. […] Polyclonal serum (M3) was collected from the immunized mouse prior the fusion and was used as the positive control in the binding assay.
On the technique in general: In an ELISA, binding on a coated surface is turned into a signal by an enzyme label.

“Also recorded” adds a separate entry of the source.

B1: sJAML: recombinant soluble fragment of JAML.D1D2 tagged with 10 His residues at the C-terminus (protein)
chain: LNDLNVSPPELTVHVGDSALMGCVFQSTEDKCIFKIDWTLSPGEHAKDEYVLYYYSNLSVPIGRFQNRVHLMGDILCNDGSLLLQDVQEADQGTYICEIRLKGESQVFKKAVVLHVLPEEPKELMVHVGGLIQMGCVFQSTEVKHVTKVEWIFSGRRAKEEIVFRYYHKLRMSVEYSQSWGHFQNRVNLVGDIFRNDGSIMLQGVRESDGGNYTCSIHLGNLVFKKTIVLHVSPEEPRTL
With B1, the “JAML labeling versus CAR staining on T84 monolayers” value in test [1] was “highly colocalizes with staining of CAR”. The “JAML binding to CHO-CAR” value with CAR on CHO-CAR cells is “JAML binding to CHO-CAR was detected in both cases”.

B2: DW100: monoclonal anti-human JAML antibody (IgG1,κ), hybridoma ATCC PTA-13051; VH SEQ ID NO:19, VL SEQ ID NO:22 (antibody, V domains shown)
VH: DVQLVESGAELVRPGASKLSCKALAYTFTDYEMHWVKQTPVHGLEWIGIIHPGSGGTVYNQKFKGKATLTADKSSSTAYMELSSLTSEDSTVYYCTRRRYYGSSYNWYFDVWGAGN
VL: VLTQSPASLAASVGETVTITCRASENIYYSLAWYQQKQGKSPQLLIYNANSLEDGVPSRFSGSGSGTQYSLKINSMQPEDTATYFCEQTYDVPLTFGAGTKLEL
Regarding B2, the “prevention of CAR-GST binding to CHO-JAML” value in test [2] is “blocked by DW100”. Also, in the test with JAML D1 domain, the JAML domain bound entry is “binds the D1 domain of JAML; also recorded: specifically binds JAML D1 domain”.

These data come from patent US10465005B2, “JAML specific binding agents, antibodies, and uses related thereto” (Emory University, priority 2011, dated 2019).
